Columns and labels:
[1] = target: recombinant human TNFα (rhTNFα) (human) (UniProt P01375); assay: cell-based or functional assay
[2] = target: recombinant human TNFα (rhTNFα) (human) (UniProt P01375); assay: SPR BIAcore, summary table
[3] = target: recombinant human TNFα (rhTNFα) (human) (UniProt P01375); assay: SPR BIAcore, biotin-rhTNFα immobilized, Ab 3 nM
[4] = target: recombinant human TNFα (rhTNFα) (human) (UniProt P01375); assay: SPR BIAcore, biotin-rhTNFα immobilized, Ab 6 nM
[5] = target: recombinant human TNFα (rhTNFα) (human) (UniProt P01375); assay: SPR BIAcore, biotin-rhTNFα immobilized, Ab 13 nM
[6] = target: recombinant human TNFα (rhTNFα) (human) (UniProt P01375); assay: SPR BIAcore, biotin-rhTNFα immobilized, Ab 25 nM
[7] = target: recombinant human TNFα (rhTNFα) (human) (UniProt P01375); assay: SPR BIAcore, biotin-rhTNFα immobilized, Ab 50 nM
[8] = target: recombinant human TNFα (rhTNFα) (human) (UniProt P01375); assay: SPR BIAcore, biotin-rhTNFα immobilized, Ab 100 nM
[9] = target: recombinant human TNFα (rhTNFα) (human) (UniProt P01375); assay: SPR BIAcore, biotin-rhTNFα immobilized, Ab 200 nM
[10] = target: recombinant human TNFα (rhTNFα) (human) (UniProt P01375); assay: SPR BIAcore, biotin-rhTNFα immobilized, Ab 400 nM
[11] = target: recombinant human TNFα (rhTNFα) (human) (UniProt P01375); assay: SPR BIAcore, biotin-rhTNFα immobilized, average of the series

Sequence of recombinant human TNFα (rhTNFα) (human) (P01375 77-233 limits assumed): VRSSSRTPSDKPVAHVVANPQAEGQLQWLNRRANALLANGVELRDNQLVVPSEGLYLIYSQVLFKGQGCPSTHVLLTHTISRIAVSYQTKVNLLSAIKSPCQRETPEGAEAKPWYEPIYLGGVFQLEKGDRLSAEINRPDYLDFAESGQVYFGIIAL

Kd [2]: 0.46 nM | Stoichiometry [2]: 1.4 | koff [2]: 8.7e-05 s⁻¹ | kon [2]: 190000 M⁻¹ s⁻¹ | Ab, bound, RUs [3]: 231 RUs | koff [3]: 6.95e-05 s⁻¹ | rhTNFα/Ab [3]: 0.26 | Ab, bound, RUs [4]: 433 RUs | koff [4]: 7.37e-05 s⁻¹ | rhTNFα/Ab [4]: 0.47 | Ab, bound, RUs [5]: 708 RUs | koff [5]: 3.66e-05 s⁻¹ | rhTNFα/Ab [5]: 0.78 | Ab, bound, RUs [6]: 957 RUs | koff [6]: 4.41e-05 s⁻¹ | rhTNFα/Ab [6]: 1.09 | Ab, bound, RUs [7]: 1110 RUs | koff [7]: 3.67e-05 s⁻¹ | rhTNFα/Ab [7]: 1.32 | Ab, bound, RUs [8]: 1140 RUs | koff [8]: 3.54e-05 s⁻¹ | rhTNFα/Ab [8]: 1.39 | Ab, bound, RUs [9]: 1080 RUs | koff [9]: 4.54e-05 s⁻¹ | rhTNFα/Ab [9]: 1.38 | Ab, bound, RUs [10]: 881 RUs | koff [10]: 5.38e-05 s⁻¹ | rhTNFα/Ab [10]: 1.2 | koff [11]: 4.94e-05 s⁻¹
Substance: MAK 195 F(ab′)2
IC50, neutralization of TNFα-induced L929 cytotoxicity [1]: 0.062 nM

— patent US20090155205A1
